How the values were obtained:
Experiment in all cases: pull-down
[1] = target: T1, 6xHis-IKKβ(1-669) EE (human, UniProt O14920 1-669, S177E | S181E)
T1 sequence (looked up): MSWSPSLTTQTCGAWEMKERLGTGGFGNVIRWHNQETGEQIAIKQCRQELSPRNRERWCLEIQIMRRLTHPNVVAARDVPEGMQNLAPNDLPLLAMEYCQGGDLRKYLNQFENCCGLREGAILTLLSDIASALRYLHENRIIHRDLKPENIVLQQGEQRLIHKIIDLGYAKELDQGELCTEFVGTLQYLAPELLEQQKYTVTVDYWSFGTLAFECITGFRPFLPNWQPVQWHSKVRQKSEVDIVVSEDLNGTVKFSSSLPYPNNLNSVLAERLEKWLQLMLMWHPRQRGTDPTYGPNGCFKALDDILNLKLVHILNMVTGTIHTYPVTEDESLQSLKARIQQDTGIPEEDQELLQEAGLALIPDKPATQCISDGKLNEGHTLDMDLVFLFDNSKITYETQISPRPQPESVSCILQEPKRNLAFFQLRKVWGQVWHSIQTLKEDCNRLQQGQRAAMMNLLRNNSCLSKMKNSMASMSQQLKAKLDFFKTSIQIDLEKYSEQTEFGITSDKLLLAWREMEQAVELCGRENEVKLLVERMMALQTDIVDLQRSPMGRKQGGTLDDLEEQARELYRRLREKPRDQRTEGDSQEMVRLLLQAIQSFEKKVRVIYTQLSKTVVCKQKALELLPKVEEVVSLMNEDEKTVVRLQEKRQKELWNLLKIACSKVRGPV

[2] = target: T2, 6xHis-IKKβ(1-669) EE K469E (human, UniProt O14920 1-669, S177E | S181E | K469E)
T2 sequence (looked up): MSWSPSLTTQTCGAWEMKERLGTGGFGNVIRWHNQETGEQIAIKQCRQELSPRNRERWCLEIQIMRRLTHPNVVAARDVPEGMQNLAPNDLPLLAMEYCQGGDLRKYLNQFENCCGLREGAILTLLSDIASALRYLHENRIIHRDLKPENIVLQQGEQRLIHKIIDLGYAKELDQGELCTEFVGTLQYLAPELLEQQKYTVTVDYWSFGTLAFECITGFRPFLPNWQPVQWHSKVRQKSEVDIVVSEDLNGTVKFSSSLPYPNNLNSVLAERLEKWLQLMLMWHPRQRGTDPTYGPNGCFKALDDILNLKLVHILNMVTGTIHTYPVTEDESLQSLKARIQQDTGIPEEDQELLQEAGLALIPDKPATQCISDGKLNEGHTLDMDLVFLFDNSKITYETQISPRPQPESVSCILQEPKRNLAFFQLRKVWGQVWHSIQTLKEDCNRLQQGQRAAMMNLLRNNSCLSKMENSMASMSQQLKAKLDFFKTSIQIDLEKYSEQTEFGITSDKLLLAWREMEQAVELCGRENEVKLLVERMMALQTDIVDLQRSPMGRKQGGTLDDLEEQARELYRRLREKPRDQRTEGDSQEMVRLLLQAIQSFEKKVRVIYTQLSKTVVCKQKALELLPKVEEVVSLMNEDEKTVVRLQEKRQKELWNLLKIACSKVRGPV

[3] = target: T3, 6xHis-IKKβ(1-669) EE K480E (human, UniProt O14920 1-669, S177E | S181E | K480E)
T3 sequence (looked up): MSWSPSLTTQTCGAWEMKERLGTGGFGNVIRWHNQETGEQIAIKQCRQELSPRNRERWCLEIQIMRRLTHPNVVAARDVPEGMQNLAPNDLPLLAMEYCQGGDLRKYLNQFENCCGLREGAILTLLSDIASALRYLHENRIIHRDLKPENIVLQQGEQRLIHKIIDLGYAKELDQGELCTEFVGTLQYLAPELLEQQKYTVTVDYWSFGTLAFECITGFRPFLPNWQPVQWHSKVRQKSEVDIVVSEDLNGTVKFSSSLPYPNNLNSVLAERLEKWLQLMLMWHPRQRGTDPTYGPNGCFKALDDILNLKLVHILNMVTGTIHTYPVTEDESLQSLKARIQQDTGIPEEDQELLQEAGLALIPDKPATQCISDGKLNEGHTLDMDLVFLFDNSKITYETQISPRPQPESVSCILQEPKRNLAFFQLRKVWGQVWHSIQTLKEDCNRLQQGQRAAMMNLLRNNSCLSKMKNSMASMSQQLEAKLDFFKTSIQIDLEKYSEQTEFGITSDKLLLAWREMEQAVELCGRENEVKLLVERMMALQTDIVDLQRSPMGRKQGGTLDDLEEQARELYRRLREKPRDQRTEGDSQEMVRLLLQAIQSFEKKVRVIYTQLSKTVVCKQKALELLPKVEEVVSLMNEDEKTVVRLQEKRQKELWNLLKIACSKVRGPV

Measured: binding result

DELPYDDCVFGGQRLTL (peptide, UniProt P25963 301-317, looked up) [MBP-IκBα pep(s)]
binds: all assays above

Reference: publication PMC11371828 (Nature Communications, 2024)
